This data set has as its system Escherichia coli TOP10. The data set is described as follows: shrunken log2 fold change of peptide-encoding DNA abundance (4.5 h post-induction vs induction); higher = less antimicrobial activity (less host growth inhibition). Conditions: time post-induction: 4.5 h; library: site-saturation at positions 5, 18, 19, 20.
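Further: peptides expressed intracellularly from a pBAD plasmid library in pooled LB shake-flask culture, induced with 0.3% L-arabinose, DNA abundance read by NGS, three biological replicates, DESeq2 with apeglm shrinkage.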

Regarding RRIRVRPPRLPRPRPRPRQTPRP, the “shrunken log2 fold change” value was -0.0375. The result for RRIRIRPPRLPRPRPRPTKHPRP reads -0.528; that for RRIRARPPRLPRPRPRPQMYPRP, -0.3. RRIRDRPPRLPRPRPRPEPHPRP: the “shrunken log2 fold change” value was 0.533. Consider RRIRIRPPRLPRPRPRPCHSPRP, for which the “shrunken log2 fold change” value was determined as 0.00888. On to RRIRIRPPRLPRPRPRPPFGPRP, for which the “shrunken log2 fold change” value amounted to 0.255. The result for RRIRHRPPRLPRPRPRPSFSPRP reads -0.483. Turning to RRIRPRPPRLPRPRPRPPYMPRP, the “shrunken log2 fold change” value is -0.288. The result for RRIRDRPPRLPRPRPRPRCKPRP reads -0.0316. With RRIRHRPPRLPRPRPRPGGYPRP the figure was -0.258; with RRIRERPPRLPRPRPRPAIKPRP, -0.656. The result for RRIRNRPPRLPRPRPRPLTYPRP reads -0.979; that for RRIRTRPPRLPRPRPRPKKQPRP, -0.15; that for RRIRDRPPRLPRPRPRPSIMPRP, -0.0808. On to RRIRHRPPRLPRPRPRPESRPRP, for which the “shrunken log2 fold change” value is -0.17. Consider RRIRRRPPRLPRPRPRPDVAPRP, for which the “shrunken log2 fold change” value was 0.592. As to RRIRSRPPRLPRPRPRPHQGPRP, the “shrunken log2 fold change” value is 0.0275. With RRIRTRPPRLPRPRPRPPNKPRP the figure was -0.275; with RRIRWRPPRLPRPRPRPHGFPRP, 0.407; with RRIRDRPPRLPRPRPRPFSGPRP, -0.214. The result for RRIRIRPPRLPRPRPRPWYWPRP reads -1.38. The result for RRIRARPPRLPRPRPRPCGFPRP reads 0.111; that for RRIRGRPPRLPRPRPRPRMVPRP, 0.643; that for RRIRPRPPRLPRPRPRPIVFPRP, -0.293. For RRIRNRPPRLPRPRPRPVLFPRP, the “shrunken log2 fold change” value is -0.326. The result for RRIRYRPPRLPRPRPRPAEQPRP reads 0.0374; that for RRIRNRPPRLPRPRPRPLMWPRP, -0.175. With RRIRTRPPRLPRPRPRPQVVPRP the figure was -0.0349; with RRIRFRPPRLPRPRPRPCSPPRP, -0.674; with RRIRDRPPRLPRPRPRPVTYPRP, -0.0305.

With RRIRFRPPRLPRPRPRPQSTPRP, the “shrunken log2 fold change” value was -0.249.

Turning to RRIRQRPPRLPRPRPRPCEAPRP, the “shrunken log2 fold change” value stood at 0.00535. With RRIRMRPPRLPRPRPRPDLTPRP the figure was 0.869.

RRIRQRPPRLPRPRPRPPPMPRP: the “shrunken log2 fold change” value is 0.558. As to RRIRMRPPRLPRPRPRPCGKPRP, the “shrunken log2 fold change” value worked out at 0.0716.

With RRIRKRPPRLPRPRPRPMGGPRP, the “shrunken log2 fold change” value came to 0.0559. With RRIRHRPPRLPRPRPRPKVMPRP the figure was 0.0163; with RRIRKRPPRLPRPRPRPDQSPRP, 0.0875. The result for RRIRPRPPRLPRPRPRPWCYPRP reads -0.143; that for RRIRIRPPRLPRPRPRPNNKPRP, -0.85.

Consider RRIRPRPPRLPRPRPRPANCPRP, for which the “shrunken log2 fold change” value worked out at 0.0263. Take RRIRYRPPRLPRPRPRPNQRPRP: the “shrunken log2 fold change” value is -0.181. Consider RRIRTRPPRLPRPRPRPAPHPRP, for which the “shrunken log2 fold change” value was 0.22. In the case of RRIRHRPPRLPRPRPRPWMEPRP, the “shrunken log2 fold change” value is -0.00645. As for RRIRGRPPRLPRPRPRPTETPRP, the “shrunken log2 fold change” value amounted to 0.559. Turning to RRIRGRPPRLPRPRPRPKKSPRP, the “shrunken log2 fold change” value was 0.834.

RRIRLRPPRLPRPRPRPSHPPRP: the “shrunken log2 fold change” value was -0.516. With RRIRDRPPRLPRPRPRPDPPPRP the figure was 0.627; with RRIRVRPPRLPRPRPRPSLYPRP, -0.62; with RRIRLRPPRLPRPRPRPIREPRP, -0.27.

Values taken from the supplement of paper PMC9112550, “Optimization of the antimicrobial peptide Bac7 by deep mutational scanning” (BMC Biology, 2022).
